Data published in article PMC11252331.
One block for each substance: values may come before it.

How the values were obtained:
[1] = biological target: VDAC2 peptide (C-terminus of Voltage Dependent Anion-selective Channel isoform 2); test: VDAC2 titration of cleavage rate of peptidic fluorescence-quenched substrate, fitted to the hyperbolic weak-binding equation; conditions: substrate 2 µM; HTRA1 wt 30 nM; R274Q 300 nM
[2] = biological target: untagged ∆N∆PDZ HTRA1 R274Q used for NMR DOSY (human) (UniProt Q92743); test: NMR DOSY; 100 µM HTRA1 alone, 50 mM potassium phosphate pH 6.7, 10% D2O, 25 °C
[3] = biological target: ΔN HTRA1 D174R-S328A (proteolytically inactive corrector variant) (human) (UniProt Q92743); test: SEC-MALS; Superdex 200 Increase 10/300, 2x PBS, 56 µl of 10 mg/ml protein (273 µM monomer equivalent; A173T 6.5 mg/ml, 178 µM); single proteins or D174R-S328A + R274Q mixed at a 1:1 ratio
ΔN HTRA1 A252T (human) [4] = biological target: ΔN HTRA1 A252T (human) (UniProt Q92743); test: cross-linking; 0.5 µM HTRA1, 50 mM NaPi, 50 mM NaCl pH 8.0, 37 °C, 0.5% glutaraldehyde 2 min; silver staining or Western blot; single proteins or mixtures
ΔN HTRA1 A252T (human) [5] = biological target: ΔN HTRA1 A252T (human) (UniProt Q92743); test: SEC-MALS; Superdex 200 Increase 10/300, 2x PBS, 56 µl of 10 mg/ml protein (273 µM monomer equivalent; A173T 6.5 mg/ml, 178 µM); single proteins or D174R-S328A + R274Q mixed at a 1:1 ratio
ΔN HTRA1 A252T (human) [6] = biological target: ΔN HTRA1 A252T (human) (UniProt Q92743); test: SEC; analytical SEC, Agilent AdvanceBio SEC 300 Å column, 2x PBS, 10 µl of 10 mg/ml protein (273 µM monomer equivalent; A173T 6.5 mg/ml, 178 µM); single proteins or mixtures
[7] = biological target: ΔN HTRA1 wild type (human HTRA1 lacking the N-terminal IGFBP7-like fragment) (human) (UniProt Q92743); test: native MS; binding experiments, 5 µM protein with VDAC2 peptide added at molar ratios, 200 mM ammonium acetate pH 6.8
[8] = biological target: ΔN HTRA1 wild type (human HTRA1 lacking the N-terminal IGFBP7-like fragment) (human) (UniProt Q92743); test: cross-linking; 0.5 µM HTRA1, 50 mM NaPi, 50 mM NaCl pH 8.0, 37 °C, 0.5% glutaraldehyde 2 min; silver staining or Western blot; single proteins or mixtures
[9] = biological target: ΔN HTRA1 wild type (human HTRA1 lacking the N-terminal IGFBP7-like fragment) (human) (UniProt Q92743); test: SEC-MALS; Superdex 200 Increase 10/300, 2x PBS, 56 µl of 10 mg/ml protein (273 µM monomer equivalent; A173T 6.5 mg/ml, 178 µM); single proteins or D174R-S328A + R274Q mixed at a 1:1 ratio
[10] = biological target: ΔN HTRA1 wild type (human HTRA1 lacking the N-terminal IGFBP7-like fragment) (human) (UniProt Q92743); test: SEC; analytical SEC, Agilent AdvanceBio SEC 300 Å column, 2x PBS, 10 µl of 10 mg/ml protein (273 µM monomer equivalent; A173T 6.5 mg/ml, 178 µM); single proteins or mixtures

Substance: ΔN HTRA1 wild type (human HTRA1 lacking the N-terminal IGFBP7-like fragment) (from UniProt Q92743) R274Q
Kd [1]: 12.1 µM

Substance: ΔN HTRA1 D174R-S328A (proteolytically inactive corrector variant) (from UniProt Q92743 158-480) (domain or fragment)
stoichiometry N [3]: 3

Substance: ΔN HTRA1 A252T (from UniProt Q92743 158-480) (domain or fragment)
stoichiometry N (ΔN HTRA1 A252T (human) [4]): 3
stoichiometry N (ΔN HTRA1 A252T (human) [5]): 3
stoichiometry N (ΔN HTRA1 A252T (human) [6]): 3

The next lines start with the values.

stoichiometry N [2]: 3
Substance: untagged ∆N∆PDZ HTRA1 R274Q used for NMR DOSY (from UniProt Q92743 158-375) (domain or fragment)

stoichiometry N [7]: 3
stoichiometry N [8]: 3
stoichiometry N [9]: 3
stoichiometry N [10]: 3
Substance: ΔN HTRA1 wild type (human HTRA1 lacking the N-terminal IGFBP7-like fragment) (from UniProt Q92743 158-480) (domain or fragment)
